Measured values taken from patent US20190083645A1 (AbbVie / Abbott, published 2019).

T1: human CLDN6 (human, UniProt P56747 1-220)
T1 sequence: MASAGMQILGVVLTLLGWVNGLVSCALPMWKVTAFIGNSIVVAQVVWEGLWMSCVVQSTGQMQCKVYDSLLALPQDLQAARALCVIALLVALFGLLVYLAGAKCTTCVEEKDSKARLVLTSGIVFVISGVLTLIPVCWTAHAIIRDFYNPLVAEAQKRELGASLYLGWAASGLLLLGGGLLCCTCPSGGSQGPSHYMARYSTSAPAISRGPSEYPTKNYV

T2: human CLDN9 (human, UniProt O95484 1-217)
T2 sequence: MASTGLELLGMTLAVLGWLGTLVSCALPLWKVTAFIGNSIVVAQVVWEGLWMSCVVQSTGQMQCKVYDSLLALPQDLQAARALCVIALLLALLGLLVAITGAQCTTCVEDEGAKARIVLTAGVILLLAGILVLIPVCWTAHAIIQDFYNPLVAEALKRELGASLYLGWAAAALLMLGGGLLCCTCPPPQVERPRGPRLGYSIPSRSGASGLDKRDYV

T3: human CLDN4 (human, UniProt O14493 1-209)
T3 sequence (looked up): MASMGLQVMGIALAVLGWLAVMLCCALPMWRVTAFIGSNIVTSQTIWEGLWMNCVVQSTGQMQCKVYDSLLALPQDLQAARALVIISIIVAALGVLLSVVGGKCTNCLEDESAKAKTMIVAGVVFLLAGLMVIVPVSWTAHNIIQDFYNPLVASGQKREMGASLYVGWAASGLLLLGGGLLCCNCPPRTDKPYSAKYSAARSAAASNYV


Legend:
Assay in all cases: cell-based or functional assay
human CLDN6 = molecular target: T1, human CLDN6
human CLDN9 = molecular target: T2, human CLDN9
human CLDN4 = molecular target: T3, human CLDN4

| Binder | apparent IC50, killing of HEK293T cells overexpressing hCLDN6 with anti-mouse Fab-saporin, CellTiter-Glo (human CLDN6) [nM] | apparent IC50, killing of HEK293T cells overexpressing hCLDN9 with anti-mouse Fab-saporin, CellTiter-Glo (human CLDN9) [nM] | apparent IC50, killing of HEK293T cells overexpressing hCLDN4 with anti-mouse Fab-saporin, CellTiter-Glo (human CLDN4) [nM] |
| --- | --- | --- | --- |
| SC27.108 (antibody, V domains shown) VH: QVQMQQSGAELVRPGTSVKVSCKASGYAFTNYLIEWVKQRPGQGLEWIGLINPGSGGTNYNEKFKGKATLTADKSSTTAYMQLSSLTSDDSAVYFCARRSPLGSWIYYAYDGVAYWGQGTLVTVSA VL: EIVLTQSPALMAASPGEKVTITCSVSSSISSSNLHWYQQKSGTSPKLWIYGTSNLASGVPVRFSGSGSGTSYSLTISNMEAEDAATYYCQQWSSYPHTFGGGTKLEIK | 102 | > 2000 | > 2000 |
| SC27.105 (antibody, V domains shown) VH: EVQLQQSGPELVKPGASVKISCKASGYSFTGYYMNWVKQSPEKSLEWIGEINPSTGSTTYNQKFKAKATLTVDKSSSTAYMQLKSLTSEDSAVYYCARRDYYYGSGFYAMDYWGQGTSVTVSS VL: DVQMTQSPSSLSASLGERVSLTCQASQSVSNNLNWYQQTPGKAPRLLIYGASKLEDGVSSRFSGTGYGTDFTFTISSLEEEDVATYFCLQHRYLWTFGGGTKLEIK | 235 | > 2000 | > 2000 |
| SC27.204 (antibody, V domains shown) VH: EVKVLESGGGLVQPGGSLKLSCAASGFDFSRYWMSWVRQAPGKGLEWIGEINPDSSTINYTPSLKAKFIISRDNAKNTLYLQMSKVRSEDTALYYCTGPAYWGQGTLVTVSA VL: DIVMTQSQKFMSTSVGDRVSVACKAGQNVGTSVAWYQQKPGHSPKSLIYSASYRYSGVPNRFTGSGSGTDFTLTISNVQSEDLADYFCQQYITYPYTFGGGTKLEII | 25.2 | 16.9 | > 2000 |
| SC27.201 (antibody, V domains shown) VL: DIQMTQSSSSFSVSLGDRVTITCKASEDIYNRLAWYQQKPGNAPRLLISGATSLEAGVPSGFSGSGSGKDYTLSITSLQTEDVATYYCQQYWSTPPTFGGGTKLELK V domain: EVQLQQSGPELVKPGASVKISCKTSGYTFTENIRHWVKQSRGKSLEWIGTINPNNGETRYNQKFKGKATLTVDKSSSTAYMELRSLTSEDSAVYYCTRGITKSPYGMDYWGQGTSITVSS | 48.2 | 155 | 69.7 |
| SC27.104 (antibody, V domains shown) VH: EVQLQQSGPELVKPGASVKISCKTSGYTFTEYTVHWVKQSHGKSLEWIGGVYPKNGDTTYNQKFRGKATLTVDKSSNTAYMELRSLTSEDSAVYYCTGKDGYDGFAYWGQGTLVTVSA VL: DIQMTQSSSSFSVSLGDRVTITCKASEDIYNRLAWYQQKPGNAPRLLISGATSLETGVPSRFSGSGSGKDYTLSITSLQTEDVATYYCQQYWSNPPTFGGGTKLEIK | 284 | > 2000 | 969 |
| SC27.103 (antibody, V domains shown) VH: EVHLQQSGPELVKPGGSMKISCKASGYSFTGYTMNWVKQSHGKNLEWIGLFNPYNGGTSYNQKFKGKATLTVDKSSSTAYMELLSLTSEDSAVYYCARCYRYDGLDYWGQGTTLTVSS VL: QIVLTQSPAIMSASLGERVTMTCTASSSVSSSYLHWYQQKPGSSPTLWIYRTSDLASGVPARFSGSGSGTSYSLTISSMEAEDAATYYCHQYHRSPWTFGGGTRLEIK | 57.7 | 466 | > 2000 |
